Target: mouse PKA-Cα (Mus musculus, UniProt P05132)
Assay: Surface plasmon resonance
Settings: SPR; mouse PKA-Cα; ATP and MgCl2 present

B1: SMO pCT WRR mutant: SMO pCT harboring the WRR mutation, GST-tagged for SPR (protein)
chain: KRIKKSKMIAKAFSKRRELLQNPGQELSFSMHTVSHDGPVAGLAFDLNEPSADVSSAAAQHVTKMVAAAGAILPQDVSVTPVATPVPPEEQAN
modifications: left off: GST, end not stated, kept
  binding to PKA-Cα: no PKA-C binding was observed

From article PMC9696579 (Nature structural & molecular biology, 2022)
